Literature values, collected in US12485093B2, “Composition for use as an antiviral in the form of nasal drops and in nebulisers” (DERMOPARTNERS, S.L., priority 2021, dated 2025).
Read-outs that look alike come from different tables or passages of the source.

Experiments:
SARS-CoV-2 [1] = conditions: African green monkey kidney epithelial cells, 1 mg/ml
SARS-CoV-2 [2] = conditions: adenocarcinoma human alveolar basal epithelial cells (A549), 1 mg/ml
[3] = tested on: viral entry into host cells; conditions: by interacting with viral and/or cell surface receptors

B1: lactoferrin (protein, UniProt P02788 20-710, looked up)
Lactotransferrin: GRRRSVQWCAVSQPEATKCFQWQRNMRKVRGPPVSCIKRDSPIQCIQAIAENRADAVTLDGGFIYEAGLAPYKLRPVAAEVYGTERQPRTHYYAVAVVKKGGSFQLNELQGLKSCHTGLRRTAGWNVPIGTLRPFLNWTGPPEPIEAAVARFFSASCVPGADKGQFPNLCRLCAGTGENKCAFSSQEPYFSYSGAFKCLRDGAGDVAFIRESTVFEDLSDEAERDEYELLCPDNTRKPVDKFKDCHLARVPSHAVVARSVNGKEDAIWNLLRQAQEKFGKDKSPKFQLFGSPSGQKDLLFKDSAIGFSRVPPRIDSGLYLGSGYFTAIQNLRKSEEEVAARRARVVWCAVGEQELRKCNQWSGLSEGSVTCSSASTTEDCIALVLKGEADAMSLDGGYVYTAGKCGLVPVLAENYKSQQSSDPDPNCVDRPVEGYLAVAVVRRSDTSLTWNSVKGKKSCHTAVDRTAGWNIPMGLLFNQTGSCKFDEYFSQSCAPGSDPRSNLCALCIGDEQGENKCVPNSNERYYGYTGAFRCLAENAGDVAFVKDVTVLQNTDGNNNEAWAKDLKLADFALLCLDGKRKPVTEARSCHLAMAPNHAVVSRMDKVERLKQVLLHQQAKFGRNGSDCPDKFCLFQSETKNLLFNDNTECLARLHGKTTYEKYLGPQYVAGITNLKKCSTSPLLEACEFLRK
notes: naturally occurring, non-toxic glycoprotein, multifunctional protein of the immune system
SARS-CoV-2 infection
  effect on efficacy of remdesivir and hydroxychloroquine: potentiated the efficacy of both remdesivir and hydroxychloroquine
SARS-CoV-2 infection; read-out: IC50 of inhibition of SARS-CoV-2 infection
  IC50: 308 nM
SARS-CoV-2 [1]
  inhibition of SARS-CoV-2: capable of inhibiting SARS-CoV-2
SARS-CoV-2 [2]
  inhibition of SARS-CoV-2: capable of inhibiting SARS-CoV-2
[3]
  block of viral entry into host cells: managed to block viral entry into host cells
